Substitutions are numbered along the chain they refer to.
T1: mouse GPRC5D (mouse, UniProt Q9JIL6 1-344)
T1 construct: Full length, on stably transfected CHO-K1 cells; also called murineGPRC5D; CHO-K1-murineGPRC5D
T1 sequence: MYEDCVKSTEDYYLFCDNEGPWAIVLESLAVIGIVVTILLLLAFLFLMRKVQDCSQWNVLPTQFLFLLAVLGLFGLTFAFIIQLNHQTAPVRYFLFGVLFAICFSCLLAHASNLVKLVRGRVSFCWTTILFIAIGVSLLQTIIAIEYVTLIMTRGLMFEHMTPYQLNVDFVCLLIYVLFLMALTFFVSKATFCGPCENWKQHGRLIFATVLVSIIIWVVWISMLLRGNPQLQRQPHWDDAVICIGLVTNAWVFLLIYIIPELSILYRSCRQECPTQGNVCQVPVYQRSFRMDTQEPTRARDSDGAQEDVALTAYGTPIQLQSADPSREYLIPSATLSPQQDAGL

T2: monkey GPRC5D (monkey, UniProt Q9NZD1 1-343 (human entry))
T2 construct: Full length, on stably transfected CHO-K1 cells; also called cynoGPRC5D; CHO-K1-cynoGPRC5D
T2 chain: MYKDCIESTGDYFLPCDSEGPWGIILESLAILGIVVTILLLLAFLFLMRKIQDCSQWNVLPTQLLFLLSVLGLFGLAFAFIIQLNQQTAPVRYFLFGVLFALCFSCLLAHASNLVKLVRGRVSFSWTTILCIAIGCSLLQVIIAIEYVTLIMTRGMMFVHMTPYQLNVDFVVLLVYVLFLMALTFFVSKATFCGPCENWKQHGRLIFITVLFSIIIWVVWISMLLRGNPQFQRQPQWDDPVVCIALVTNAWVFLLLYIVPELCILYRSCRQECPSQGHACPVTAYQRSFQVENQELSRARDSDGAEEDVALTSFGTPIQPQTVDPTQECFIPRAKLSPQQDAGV

B1: Chi-89 (antibody, human IgG1, kappa, V domains shown)
VH: EVQLVESGGDLVKPGGSLKLSCAASGFTFSSYGMSWVRQTPDKRLEWVATISSGGSYTYYPDSVKGRFTFSRDNAKNTLYLQMSSLKSEDTAMYYCVRQALRYHMDSWGQGTSVTVSS
VL: DIVMTQSQKFMSTSVGDRVSVTCKASQNVGTNVAWYQQKPGQSPKALIYSASYRYSGVPDRFTGSGSGTDFTLTISNVQSEDLADFFCQQYYSYPWTFGGGTKLEIKR
notes: Human-mouse chimeric antibody, human IgG1 heavy chain constant region and Kappa light chain constant region; also called chimeric antibody Chi-89
B2: Chi-105 (antibody, human IgG1, kappa, V domains shown)
VH: EVQLQQSGPELVKPGASVKMSCKASGYTFTDYYMNWVKQSHGKSLEWIGYIYPNNGGTGYNQRFKGKATLTADKSSSTAYMELRSLTSEDSAVYYCARWGGTRLGYYAMDYWGQGTSVTVSS
VL: B1 VL with A34V, A46L, S50W, Y53T, Y55H, S56T, F86Y, Y92S, S93R, W96Y
notes: Human-mouse chimeric antibody, human IgG1 heavy chain constant region and Kappa light chain constant region
B3: Chi-131 (antibody, human IgG1, kappa, V domains shown)
VH: EVQLQQSGPELVKPGASVKMSCKASGYTFTNYVMHWVKQKPGQGLEWIGYFNPYNDGTNYNEKFKGKATLTSDKSSNTAYMELSSLTSEDSAVYYCARGGVRRYFDVWGAGTTVTVSS
VL: DIQMTQSPSSLSASLGERVSLTCRASQDIGSNLNWLQLGPDGTIKRLIYATFSLDSGVPKRFSGSRSGSDYSLTISSLESEDFVDYYCQQYANFPPTFGGGTKLEIKR
notes: Human-mouse chimeric antibody, human IgG1 heavy chain constant region and Kappa light chain constant region; also called chimeric antibody Chi-131
B4: Chi-169 (antibody, human IgG1, kappa, V domains shown)
VH: EVKLVESGGGLVKPGASLKLSCAASGFTFSNYGMSWVRQTSDKRLEWVASISSGGGRIYYPDNVKGRFTISRENAKNTLYLQMSSLKSEDTALYYCTRHAMDNWGQGTSVIVSS
VL: QIVLTQSPAIMSASPGEKVTMTCSASSSVSNMYWYQQKSGTSPKRWIYDTSKLASGVPARFSGSGSGTSYSLTISSMEAEDASTYYCQQWSSNPLTFGAGTTLELKR
notes: Human-mouse chimeric antibody, human IgG1 heavy chain constant region and Kappa light chain constant region; also called chimeric antibody Chi-169
B5: Chi-128 (antibody, human IgG1, kappa, V domains shown)
VH: DVQLVESGGGLVQPGGSRKVSCAASGFTFSSFGMHWVRQAPEKGLEWVAYISRGSSTIYYADTVKGRFTISRDNPKNTLFLQMTSLRSEDTAMYYCARSGYGSSSYYFDYWGQGTTLTVSS
VL: ENVLTQSPAIMSASPREKVTMTCRASSSIRSSYLHWYQQKSGASPKLWIYSTSNLASGVPARFSGSGSGTSYSLTISSVEAEDAATYYCQQFSGYPLTFGGGTKLEIKR
notes: as for B2
B6: Talquetamab (bispecific antibody, human IgG4 S228P, kappa, lambda, F234A L235A)
heavy 1: not shown
light 1: DIQMTQSPSSLSASVGDRVTITCKASQNVATHVGWYQQKPGKAPKRLIYSASYRYSGVPSRFSGSGSGTEFTLTISNLQPEDFATYYCQQYNRYPYTFGQGTKLEIKRTVAAPSVFIFPPSDEQLKSGTASVVCLLNNFYPREAKVQWKVDNALQSGNSQESVTEQDSKDSTYSLSSTLTLSKADYEKHKVYACEVTHQGLSSPVTKSFNRGEC
heavy 2: EVQLVESGGGLVQPGGSLRLSCAASGFTFNTYAMNWVRQAPGKGLEWVARIRSKYNNYATYYAASVKGRFTISRDDSKNSLYLQMNSLKTEDTAVYYCARHGNFGNSYVSWFAYWGQGTLVTVSSASTKGPSVFPLAPCSRSTSESTAALGCLVKDYFPEPVTVSWNSGALTSGVHTFPAVLQSSGLYSLSSVVTVPSSSLGTKTYTCNVDHKPSNTKVDKRVESKYGPPCPPCPAPEAAGGPSVFLFPPKPKDTLMISRTPEVTCVVVDVSQEDPEVQFNWYVDGVEVHNAKTKPREEQFNSTYRVVSVLTVLHQDWLNGKEYKCKVSNKGLPSSIEKTISKAKGQPREPQVYTLPPSQEEMTKNQVSLTCLVKGFYPSDIAVEWESNGQPENNYKTTPPVLDSDGSFLLYSKLTVDKSRWQEGNVFSCSVMHEALHNHYTQKSLSLSLGK
light 2: QTVVTQEPSLTVSPGGTVTLTCRSSTGAVTTSNYANWVQQKPGQAPRGLIGGTNKRAPGTPARFSGSLLGGKAALTLSGVQPEDEAEYYCALWYSNLWVFGGGTKLTVLGQPKAAPSVTLFPPSSEELQANKATLVCLISDFYPGAVTVAWKADSSPVKAGVETTTPSKQSNNKYAASSYLSLTPEQWKSHRSYSCQVTHEGSTVEKTVAPTECS
notes: Four polypeptide chains; also called benchmark; BM
B7: hu131-v2 (antibody, human IgG1, kappa, V domains shown)
VH: B3 VH with Q5V, P9A, L11V, K40A, K67R, K74T, S76A, T87R, S91T, A110Q
VL: DIQMTQSPSSLSASVGDRVTITCRASQDIGSNLNWLQLGPGGAIKRLIYATFSLDSGVPSRFSGSRSGSDYTLTISSLQPEDFVDYYCQQYANFPPTFGGGTKVEIKR
notes: Humanized antibody of Chi-131
B8: hu131-v3 (antibody, human IgG1, kappa, V domains shown)
VH: EVQLVQSGAEVVKPGASVKMSCKASGYTFTNYVMHWVKQAPGQGLEWIGYFNPYNDATNYNEKFKGRATLTSDTSANTAYMELSSLRSEDTAVYYCARGGVRRYFDVWGQGTTVTVSS
VL: B7 VL
notes: Humanized antibody of Chi-131
B9: hu131-v4 (antibody, human IgG1, kappa, V domains shown)
VH: B8 VH with D56E, A57G
VL: B7 VL
notes: Humanized antibody of Chi-131
B10: hu131-v1 (antibody, human IgG1, kappa, V domains shown)
VH: B8 VH with I48M, A57G, A68V
VL: B7 VL
notes: Humanized antibody of Chi-131
B11: hu128-v1 (antibody, human IgG1, kappa, V domains shown)
VH: B5 VH with D1E, K19R, E42G, P75A, T78S, F80Y, T84N, S88A, M93V, L117V
VL: EIVLTQSPATLSASPGERATMSCRASSSIRSSYLHWYQQKPGQSPRLWIYSTSNLASGVPARFSGSGSGTDYTLTISSLEPEDAAVYYCQQFSGYPLTFGGGTKVEIKR

The binders below were run against T3, GPRC5A (human, UniProt Q8NFJ5 1-357) (assay: FACS on CHO-K1-GPRC5A cells).
T3 construct: Full length on CHO-K1 cells; also called RAIG1; Human GPRC5A
T3 sequence (Q8NFJ5 whole entry): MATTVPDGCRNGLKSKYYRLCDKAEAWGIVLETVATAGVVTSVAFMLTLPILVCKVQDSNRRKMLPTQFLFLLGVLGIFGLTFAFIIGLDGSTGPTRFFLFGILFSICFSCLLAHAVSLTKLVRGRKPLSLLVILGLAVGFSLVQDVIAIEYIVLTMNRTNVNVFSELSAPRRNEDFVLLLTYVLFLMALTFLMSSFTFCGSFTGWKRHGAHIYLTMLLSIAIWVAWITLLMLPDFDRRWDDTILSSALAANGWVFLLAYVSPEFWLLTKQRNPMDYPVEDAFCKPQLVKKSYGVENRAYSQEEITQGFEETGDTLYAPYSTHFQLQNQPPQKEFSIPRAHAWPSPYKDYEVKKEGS

Row | binding result | Binder
1 | no binding (tested: 4.1-3000 ng/mL) | B1
2 | no binding (tested: 4.1-3000 ng/mL) | B2
3 | no binding (tested: 4.1-3000 ng/mL) | B3
4 | no binding (tested: 4.1-3000 ng/mL) | B4
5 | no binding (tested: 4.1-3000 ng/mL) | B5

Each binder was assayed against T4, T cell surface CD3 (human, UniProt P07766 23-207; P04234 22-171; P09693 23-182) (assay: FACS on human CD3+ T cells).
T4 construct: CD3 is a complex of several chains; also called CD3^+ T cells
T4 sequence (P07766 23-207 limits assumed, chain 1 of 3): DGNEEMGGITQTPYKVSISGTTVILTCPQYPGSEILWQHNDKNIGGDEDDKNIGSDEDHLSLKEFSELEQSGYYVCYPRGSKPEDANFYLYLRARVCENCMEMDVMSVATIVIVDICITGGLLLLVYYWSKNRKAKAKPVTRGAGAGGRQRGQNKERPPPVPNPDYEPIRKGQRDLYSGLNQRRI
T4 sequence (P04234 22-171 limits assumed, chain 2 of 3): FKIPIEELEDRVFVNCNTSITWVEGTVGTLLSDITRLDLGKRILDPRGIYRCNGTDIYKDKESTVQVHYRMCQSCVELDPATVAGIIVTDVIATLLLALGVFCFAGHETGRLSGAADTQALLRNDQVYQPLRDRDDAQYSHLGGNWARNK
T4 sequence (P09693 23-182 limits assumed, chain 3 of 3): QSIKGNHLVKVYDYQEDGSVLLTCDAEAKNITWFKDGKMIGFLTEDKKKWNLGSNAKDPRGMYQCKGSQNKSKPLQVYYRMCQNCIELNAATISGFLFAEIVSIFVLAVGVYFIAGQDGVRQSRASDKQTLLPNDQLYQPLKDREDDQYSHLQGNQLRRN

Row | EC50 [nM] | Top(MFI) | Binder
6 | 5.35 | 155000 | B6

Each binder was assayed against T5, human GPRC5D protein (human, UniProt Q9NZD1 1-345) (assay: FACS on CHO-K1-hGPRC5D^hi cells).
T5 construct: also called hGPRC5D; CHO-K1-hGPRC5D^hi
T5 sequence (Q9NZD1 whole entry): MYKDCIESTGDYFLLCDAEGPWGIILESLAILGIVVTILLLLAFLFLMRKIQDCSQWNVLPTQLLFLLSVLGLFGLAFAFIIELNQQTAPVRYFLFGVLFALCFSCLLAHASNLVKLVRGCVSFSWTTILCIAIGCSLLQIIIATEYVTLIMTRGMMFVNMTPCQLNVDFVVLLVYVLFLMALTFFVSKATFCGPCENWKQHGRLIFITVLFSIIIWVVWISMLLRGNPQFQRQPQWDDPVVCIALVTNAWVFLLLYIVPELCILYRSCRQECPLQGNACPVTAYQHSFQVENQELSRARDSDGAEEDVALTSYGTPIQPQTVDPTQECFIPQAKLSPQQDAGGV

Row | binding result | Binder
7 | binds | B1
8 | binds | B2
9 | binds | B3
10 | binds | B4
11 | binds | B5

These binders were tested against T1, mouse GPRC5D (assay: FACS on CHO-K1-murineGPRC5D cells).

Row | binding result | Binder
12 | binds | B1
13 | binds | B3
14 | binds | B4
15 | binds | B5

Biological target: T2, monkey GPRC5D
Assay: FACS on CHO-K1-cynoGPRC5D cells

Row | binding result | Binder
16 | binds | B1
17 | binds | B2
18 | binds | B3
19 | binds | B4
20 | binds | B5

The binders below were run against T4, T cell surface CD3 (assay: cell-based or functional assay).

Row | CD25/CD4 EC50(nM), activation of T cells in the presence of MM.1S [nM] | CD25/CD8 EC50(nM), activation of T cells in the presence of MM.1S [nM] | CD69/CD4 EC50(nM), activation of T cells in the presence of MM.1S [nM] | CD69/CD8 EC50(nM), activation of T cells in the presence of MM.1S [nM] | Binder
21 | 0.0637 | 0.0592 | 0.046 | 0.0329 | B6

What follows are binders tested against T6, GPRC5C (human, UniProt Q9NQ84 24-441) (assay: FACS on CHO-K1-GPRC5C cells).
T6 construct: Full length on CHO-K1 cells; also called RAIG3; Human GPRC5C
T6 sequence (Q9NQ84 24-441 limits assumed): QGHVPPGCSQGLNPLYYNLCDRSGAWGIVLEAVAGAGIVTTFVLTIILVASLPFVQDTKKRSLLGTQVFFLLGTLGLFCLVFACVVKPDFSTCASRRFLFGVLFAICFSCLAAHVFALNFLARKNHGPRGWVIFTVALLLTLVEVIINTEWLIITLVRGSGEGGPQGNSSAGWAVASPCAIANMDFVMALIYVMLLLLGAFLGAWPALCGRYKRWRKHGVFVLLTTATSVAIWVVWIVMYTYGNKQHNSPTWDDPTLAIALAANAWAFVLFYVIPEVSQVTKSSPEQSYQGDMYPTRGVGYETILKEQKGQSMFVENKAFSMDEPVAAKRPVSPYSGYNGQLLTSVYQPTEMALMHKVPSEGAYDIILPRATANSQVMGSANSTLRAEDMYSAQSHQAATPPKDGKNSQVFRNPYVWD

Row | binding result | Binder
22 | no binding (tested: 4.1-3000 ng/mL) | B1
23 | no binding (tested: 4.1-3000 ng/mL) | B2
24 | no binding (tested: 4.1-3000 ng/mL) | B3
25 | no binding (tested: 4.1-3000 ng/mL) | B4
26 | no binding (tested: 4.1-3000 ng/mL) | B5

Each binder was assayed against T5, human GPRC5D protein (assay: FACS on NCI-H929 cells).

Row | binding result | Binder
27 | binds | B7
28 | binds | B8
29 | binds | B9
30 | binds | B10
31 | binds | B11

The binders below were run against T7, GPRC5B (human, UniProt Q9NZH0 29-403) (assay: FACS on CHO-K1-GPRC5B cells).
T7 construct: Full length on CHO-K1 cells; also called RAIG2; Human GPRC5B
T7 sequence (Q9NZH0 29-403 limits assumed): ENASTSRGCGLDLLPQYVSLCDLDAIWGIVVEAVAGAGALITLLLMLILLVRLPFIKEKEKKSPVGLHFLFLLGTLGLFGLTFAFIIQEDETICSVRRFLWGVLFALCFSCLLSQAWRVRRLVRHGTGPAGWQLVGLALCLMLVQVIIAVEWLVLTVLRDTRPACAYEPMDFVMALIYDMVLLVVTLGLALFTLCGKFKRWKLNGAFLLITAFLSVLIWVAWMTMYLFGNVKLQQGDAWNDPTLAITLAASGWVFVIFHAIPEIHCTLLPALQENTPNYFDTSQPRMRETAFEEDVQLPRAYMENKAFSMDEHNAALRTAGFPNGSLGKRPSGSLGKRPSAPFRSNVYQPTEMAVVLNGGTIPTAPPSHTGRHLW

Row | binding result | Binder
32 | no binding (tested: 4.1-3000 ng/mL) | B1
33 | no binding (tested: 4.1-3000 ng/mL) | B2
34 | no binding (tested: 4.1-3000 ng/mL) | B3
35 | no binding (tested: 4.1-3000 ng/mL) | B4
36 | no binding (tested: 4.1-3000 ng/mL) | B5

Reference: patent EP4703384A1 (Chia Tai Tianqing Pharmaceutical Group Co., Ltd., dated 2026)
